Reference: publication PMC8112865, “In vitro reconstitution reveals major differences between human and bacterial cytochrome c synthases” (eLife, 2021)
Positions of bridges follow the written chain, without caps; N, C: chain ends. No end group written: not given here.

Target: T1, GST-HCCS (human holocytochrome c synthase, GST-tagged) (human, UniProt P53701 1-268)
T1 construct: human HCCS (holocytochrome c synthase), recombinant, from pGEX GST:HCCS; Carries non-covalent heme liganded to His154 (about 10% occupied as purified, about 30% after heme loading); also called holocyt c synthase; mitochondrial cyt c synthase
T1 sequence (looked up): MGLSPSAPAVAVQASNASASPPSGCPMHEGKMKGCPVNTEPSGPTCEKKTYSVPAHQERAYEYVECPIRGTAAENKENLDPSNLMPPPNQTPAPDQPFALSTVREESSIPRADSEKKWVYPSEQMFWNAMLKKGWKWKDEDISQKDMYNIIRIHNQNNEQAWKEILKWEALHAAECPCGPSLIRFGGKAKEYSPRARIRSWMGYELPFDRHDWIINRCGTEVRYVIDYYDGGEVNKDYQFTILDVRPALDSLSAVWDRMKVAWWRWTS
Test: UV-vis absorption spectroscopy; anaerobic in vitro reaction of purified HCCS with peptide, 5 mM DTT, 37°C, 1 hr; reduced alpha peak at 552-555 nm read as heme-attached peptide still bound to HCCS (550 nm for a free heme-attached peptide)
Settings: both partners purified

B1: heme-attached 16mer (product of the HCCS reaction) (peptide)
peptide: KGKKIFIMKCSQCHTV
modifications: linker 10-13 via heme; also: biotin label, position not given here
notes: stretch of cytochrome c with alpha helix 1 and CXXCH; The product of m6 in the HCCS reaction; source: synthetic peptide (RS-synthesis), heme attached in vitro by GST-HCCS
  binding result: binds
